The nanobody polyreactivity screen of Harvey et al. (2022)

Assay: yeast display, Sf9 membrane polyspecificity reagent, FACS + sequencing; frameworks hold sequencing errors
Summary of the method: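 After 36–48 hours of galactose induction, yeast (Saccharomyces cerevisiae BJ5465) displaying a synthetic nanobody library were stained at 4 °C for 1 hour with 10% biotinylated, detergent-solubilized Sf9 membrane reagent. Streptavidin microbeads enriched the stained cells before FACS sorting into low and high (top ~1%) gates on anti-HA and streptavidin fluorescence. Each clone's polyreactivity label reflects its gate of origin.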

Row | Sequence | polyreactivity (PSR sort gate)
1 | QVQLVESGGGLLQAGGSLRVSCAASGRTFLRYAMGWSIKAPGKERELVAGIDSSGGNTYYADSVKGRFTISRDTAKKYVYLQINSLKPEDTAVYYCAPRRSCKYRGGYYWGQGTQVTVSS | high polyreactivity
2 | QVQLVESGGGLLQAGRSLRLTCAASGRTFRAYAMGWYRQAPGKEMELVASISRRGGSTYYADSVKGRFTISRDNAKNSVYLQMNSLKPEDTAVSYCAASDKYLQYDYWGQGSQVTVSS | high polyreactivity
3 | QVQLVESGGGLLQSGGSLRLSCAASGFIFRSYAMGWYRQAPGKEREFVASISSRGGTTYYADSVKGRFTISRDNAKKTVYLQMNRLKPEDTAVYYCAADYFRWAGWGYEYWGQGSQVTVSS | high polyreactivity
4 | QVQLVESGGGLQQAGGSLRLSCDASGITFRQYTMGWCRQAPGKERELVAAITSSGRTYYADSVKGRFTISRDNAKNTVYLHMNSLKPEDTAVYYCAAETYYFGYGYWGQGTQVTVSS | high polyreactivity
5 | QVQLVESGGGLVEAGGRLRLSCAAYGRIFYYNGMGCYRQAPGKERELVAAITSGGSTNYADSEKGRFTISRDNAKNNVYLQMKSVKPEDTAVSYCAADYYYYVAGVHFDYWGQGTQVTVSS | low polyreactivity
6 | QVQLVESGGGLVEAGGSLRLSCAASASIFGLNAMGWYRQAPGKEREFVAAISWSDGSTYYADSVKGRFTISRDNAKNTVYLQMNSLKPEDTAVYYCSKATEYYAESDDYDYWGQGTQVTVSS | low polyreactivity
7 | QVQLVESGGGLVEAGGSLRLSCAASGRTFSPNTMGWYRQAPGKEREFVAAITASGDSTYYADSVKGRFTISRDNAKNTVYLQMNSLKPEDTAVYYCATDSNWYWGFNYWGQGTQVTVSS | low polyreactivity
8 | QVQLVESGGGLVEAGGSLRLSCAASGYIFKSYVMGWYRQAPGTERELVAAITWSGGSTYYADSVNGRFTISRDNAKNTVYLQMNSLNPEDTAVYYCAAYPRRYRTTYDYWGQGTQVTVSS | high polyreactivity
9 | QVQLVESGGGLVEAGGSLRLSCDASGRIFYSNAMGWSRQAPGKERELVATITRSSGITYYADSVKGRFTISRDNAKNTVYLQMNSLKPEDTAVYYCAAPWYYYGYWGQGTQVTVSS | high polyreactivity
10 | QVQLVESGGGLVHAGGCLRLSCAASGRTFAPYAMGWYRLAPGKERELVAAINSGDRTYYADSVKGRFTLSRDNAKNTVNLQINSLKPEDTSGYYCSSDALAGQYTWYKYDYWGQGSQVTVSS | low polyreactivity
11 | QVQLVESGGGLVHAGGRLRLSCAASGSIFDYYAMGWSRPAPGKERELVADNTSGGSTNYADSVKGRFTISRDNAKNTVYLQMNSLKPEDTAVYYCATRIGYSDWPDGVWDLDDSEYYYWGQGTQVTVSS | low polyreactivity
12 | QVQLVESGGGLVHAGGRLRLSCAASGSMFYPYAMGWYRQAPGKERELVAAISRSGGSTRYADSVKGRFTISRDHAQNTVYLQMNSLKPEDTAVYYCAVRVFYGVGLIGYYYWGQGSQVTVSS | high polyreactivity
13 | QVQLVESGGGLVHAGGSHRLSCAATGRIFDANARGGYRQAPGKERELVAVISSRGGSTYYADSVKGRFTISRDNAKNTVYLQMNSLKPEDTAVYYCAKGFSVAGYDYWGQGTQVTVSS | low polyreactivity
14 | QVQLVESGGGLVHAGGSIRLSCAASGRIFGYYTMGWYRQAPGKERELVAAIRGNGGSTYYADSVKGLFTISRDNAKNTVYLQMHSLKPQDTAVYYCAATDISYRRVPYGRKKQYDYWGQGTQVTVSS | high polyreactivity
15 | QVQLVESGGGLVHAGGSIRLSCAASGRTFAYNDMGWYTQAPGTERELVAAISWSDGTTYYADSVKGRFTISRDNAKNPVYLQMHCLKPEDTAVYYCAAESYPSEVASYVSEYDYWGQGTQVTVSS | low polyreactivity
16 | QVQLVESGGGLVHAGGSLLLSCAASGRTFRTYTMGLYRQAPGKERELVAVITWTGGSTYYADSVKGRFTISRDNAKNTVYIQMNSLKPEDTAVYYCAARIITFSNVYNGYEYWGQGTQVTVSS | high polyreactivity
17 | QVQLVESGGGLVHAGGSLRLICAASGSIFQSYDMGWYRQAPGKERELVAAISWSGSTTYYADSVKGRFTISRDNAKNTVYLQMNSLKPEDTAVYYCAVDSNPPDWWAVIYGYWGQGTQVTVSS | low polyreactivity
18 | QVQLVESGGGLVHAGGSLRLSCAASGFIFTKNAMGWYRQAPGKDRELVAAITSSGGNTYYADSVKGRFTISRDNAKNTVYLQMNSLKPEDTAVYYCAASRFLRMYWGQGTQVTVSS | high polyreactivity
19 | QVQLVESGGGLVHAGGSLRLSCAASGFTFGYYALGWYRQAPGKERELVASISRSGGSTNYADSVKGRFTISRDNAKYTVYFQMNRLKPEDTAVYYCNKRVNTYRSGSRRYDYWGQGTQVTVSS | high polyreactivity
20 | QVQLVESGGGLVHAGGSLRLSCAASGIIFRFYAMGWYRQAPAKERELVAAISSGGSTYYADSVKGRFTISRDNAKNTVYLQMIRLKPEDTAVYYCNARVRYKRTVRYGYWGQGTQVTVSS | high polyreactivity
21 | QVQLVESGGGLVHAGGSLRLSCAASGLIFHHNAMGWYRQAPGKERELVAAISRSAGSTYYADSVKGRFTISRDNAKNTVYLQMNSLKPEDTAVYYCAKRPTPTSKYDTVGYGYWGQGTQVTVSS | low polyreactivity

Row | Sequence | polyreactivity (PSR sort gate)
22 | QVQLVESGGGLVHAGGSLRLSCAASGNTFWPYAMGWYRQAPGKERELVAAINYSGTRTYYSDSVKGRFTISRDNAKNTVYLQMNSLKPEDTAVYYCAKATSPPGTTAGGYDYWGQGTQVTVSS | low polyreactivity
23 | QVQLVESGGGLVHAGGSLRLSCAASGRIFGPYAMGWYRQAPGKERELVAAISRSGSTTYYAVSVKGRFTISRDNAKNTVYLQMNSLKPDDTAVYYCNGRRYRVVQSKPCDYWGQGTQVTVSS | high polyreactivity
24 | QVQLVESGGGLVHAGGSLRLSCAASGRIFRIYAMGWYRQAPGKERELVAAISRGGRTNYADSVKGRFTISRDNAKNTVYLQMNSLKPEDTAVYYCNATSNWGPTKVRFNYWGQGTQVTVSS | high polyreactivity
25 | QVQLVESGGGLVHAGGSLRLSCAASGRIFTAYAMGWYRQAPGKERELVASISTSGGRTYYADSVKGLFTISRDNAKNTVYLQMNSLIPEDTAVYYFAADFESYSRYYDGYDYWGQGTQVTVSS | high polyreactivity
26 | QVQLVESGGGLVHAGGSLRLSCAASGRIFTTNAMGWYRQAPGKERELVASITRSGSTYYADSVKGRFTISRDNAKNTVYLQMNSLKPEVTAVYYCAAYAYIFLDWGGYPYYLYEYDYWGQGTQVTVSS | low polyreactivity
27 | QVQLVESGGGLVHAGGSLRLSCAASGRIFTYYGMGWYRQAPGKERELVAAITWNGGSTYYADSVKGRFTISRDNAKNTVYLQMNSLKPEDTAVYYCNAVVYARSGGAQYGYWGQGTQVTVSS | low polyreactivity
28 | QVQLVESGGGLVHAGGSLRLSCAASGRIFYYYTKGWYRQEPGKERELVAAISSGGSTNYADSVKGRFTISRDNAKNTVYLQMNSLKPEHTAVYYWARYGGYWSLKYDYWGQGTQVTVSS | high polyreactivity
29 | QVQLVESGGGLVHAGGSLRLSCAASGRTFDIYAMGWYRQAPGKERELVAAISSGGSTYYADSVKGRFRISRDNAKKTVYLQKNSLKPEDTAVYYCAVRWYDQVSRRGIGYYWGQGTQVTVSS | low polyreactivity
30 | QVQLVESGGGLVHAGGSLRLSCAASGRTFKFYAMGWYRQAPGKERELVAAISGSGGTTRYADSVKGRFTISRDNAKNTVYLQMNSLKPEDTAVYYCAARPPGLALEYGYWGQGTQVTVSS | high polyreactivity
31 | QVQLVESGGGLVHAGGSLRLSCAASGRTFVSYAMGWYRQAPGKERELVAAITNAGSTYYADSVKGRFTISRDNAKNTVYLQMNSLKPEDTAVYYCAATYWDYWGYGYDYWGQGTQVTVSS | high polyreactivity
32 | QVQLVESGGGLVHAGGSLRLSCAASGRTVKNNAMGWYRQSPGKERDLVAAISSTGSTNYADSVKGRFTISRDNAKNPVYLQMNSLKPADTAVYYCAAEGIFRYYTQATMEYWGQGTQVTVSS | low polyreactivity
33 | QVQLVESGGGLVHAGGSLRLSCAASGSIFGRYVMGWYRQAPGKERELVAAITRSGGSTYYADSVKGRFTISRDNAKNTVYLQMNSLKPEDTAVYYCNADVNFIDDDYWGHGTQVTVSS | low polyreactivity
34 | QVQLVESGGGLVHAGGSLRLSCAASGSIFIYYAMGWYRQPPGKERELVAAIDRSGGNTYYADSVKGRFTISRDYAKTSVYLEMNSLKPEDTAVDYCAAQVHRRVQYDYWGQRTQVTVSS | high polyreactivity
35 | QVQLVESGGGLVHAGGSLRLSCAASGSIFPSNAMGWYREAPGKERELVAAISQSGGRTYYADSVKGRFTISRDNAKNTVYLQMNSLKPEDTAVYYCAADHRRAGMDYWGQGTQVTVSS | low polyreactivity
36 | QVQLVESGGGLVHAGGSLRLSCAASGSIFTWNGMGWYRQAPGKERELVAGMSYSGGITYTDSVKGRFTISRDNAKNTVYLQMNSLKPEDTAVYYCNARSKVAYYRHYYWGQGTQVTVSS | low polyreactivity
37 | QVQLVESGGGLVHAGGSLRLSCAASGSISTRNAMGWYRQAPGKDRELVASITSGGSTYYADSVKGRFTISRDNAKNTVYLQMNSLKPEDTAVYYCAARRRRPWGYGYGYWGQGTQVTVSS | high polyreactivity
38 | QVQLVESGGGLVHAGGSLRLSCAASGSTFDKYAMGWYRQAPGKERELVAAITWGGGSTYYADSVKGRFTISRDYAKNTVYLQMNSLKPEDTAVYYCNAYRVYAWIEYNYWGQGTQVTVSS | low polyreactivity
39 | QVQLVESGGGLVHAGGSLRLSCAASGSTFQLNAMGWYRQAPGKERELVAAISTRGGSTYYADSLKGRFTISRDNAKNTVYLQMNSLKPEDTAVYYCAARLYTRRDYWGQATQVTVSS | high polyreactivity
40 | QVQLVESGGGLVHAGGSLRLSCAASGSTFTRNAMGWYRQAPGKERELVATISWRSGSTYYADSVKGRFTISRDNAKNTVYLQMNSLKQEDTAGYYCAADYLNIYNYWGQGTQVTVSS | high polyreactivity
41 | QVQLVESGGGLVHAGGSLRLSCAASGSTFVRNAMGWYRPAPGKERQLVAAITSRGGSTYYADSVKGRFTISRDNAKNTVYLQMISLKPEDTAVYYCAARFGVKRGQYDYWGQGTQVTVSS | high polyreactivity
